First the molecules themselves.
B2: human kallikrein 14 (hK14) (enzyme, UniProt Q9P0G3 25-251, looked up)
chain: IIGGHTCTRSSQPWQAALLAGPRRRFLCGGALLSGQWVITAAHCGRPILQVALGKHNLRRWEATQQVLRVVRQVTHPNYNSRTHDNDLMLLQLQQPARIGRAVRPIEVTQACASPGTSCRVSGWGTISSPIARYPASLQCVNINISPDEVCQKAYPRTITPGMVCAGVPQGGKDSCQGDSGGPLVCRGQLQGLVSWGMERCALPGYPGVYTNLCKYRSWIEETMRDK
notes: range counted on GenBank AAK48524 (printed), which may differ from the UniProt numbering; also called recombinant hK14

Assay [1] has as its target B2. Kind of assay: progress curve.
The target of assay [2] is B2. The assay can be described thus: progress curve. The source holds these as a separate data set.
Assay [3] has as its target B2. Kind of assay: residual hK14 activity after 4 h at 37 C against [I0]/[E0]. An outline of the steps:
(§1)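 hK14 preincubated 4 hours at 37° C with varying inhibitor concentrations in 50 mM Tris pH 7.5, 150 mM NaCl, 0.05% Triton X-100, 0.01% BSA; residual activity read with Boc-Val-Pro-Arg-AMC (ex 340/em 485 nm). SI taken as abscissa intercept of vi/v₀ versus [I₀]/[E₀] linear regression.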

In assay [4] the target is B2. The assay can be described thus: progress curve, pseudo-first order, 37 C. The procedure:
(§2) The association rate constants for interactions of hK14, with different inhibitors were determined under pseudo-first order conditions using the progress curve method (Morrison and Walsh, 1988). Under these conditions, a fixed amount of enzyme (2 nM) was mixed with different concentrations of inhibitor (0-80 nM) and an excess of substrate (20 μM). Reactions were performed in reaction buffer (50 mM Tris pH 7.5, 150 mM NaCl, 0.05% Triton X-100, 0.01% BSA) at 37° C. for 45 min and the rate of product formation was measured using a FLₓ800 fluorescence 96-well microplate reader (Biotek, USA) Inhibition is considered to be irreversible over the course of reaction and the progression of enzyme activity is expressed as product formation (P), beginning at a rate (vz) and is inhibited over time (t) at a first-order rate (kobs), where the rate constant is only dependent on the inhibitor concentration.
(§3) Kinetic analysis of the inhibition of human hK14 by recombinant serpins were performed under pseudo-first-order conditions using an excess of inhibitor at various molar ratios of hK14. The time-dependent inactivation of the enzyme through reaction with serpin was monitored continuously, following the decrease in the rate of substrate turnover. Progress curves for reactions with different serpin concentrations were fitted to equation 1 to calculate values describing the rate constant (kobs). The association rate constants (kₐ) were determined from the slope of kobs values versus the concentration of the hK14 inhibitors.

In assay [5] the target is T1, human neutrophil elastase (HNE) (human, UniProt P08246 30-247, limits assumed).
T1 sequence (looked up): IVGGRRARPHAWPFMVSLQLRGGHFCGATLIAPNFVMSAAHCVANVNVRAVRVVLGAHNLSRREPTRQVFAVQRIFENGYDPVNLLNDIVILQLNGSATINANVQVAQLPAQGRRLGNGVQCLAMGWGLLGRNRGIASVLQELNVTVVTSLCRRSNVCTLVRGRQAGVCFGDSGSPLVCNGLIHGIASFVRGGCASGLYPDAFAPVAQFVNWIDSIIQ
The assay can be described thus: cell-based or functional assay.

For assay [6], the target named is prostate specific antigen (PSA, hK3) (human, UniProt P07288 25-261). The assay can be described thus: cell-based or functional assay.
A further assay concerns the target human kallikrein 6 (hK6) (human, UniProt Q92876 22-244). The assay can be described thus: cell-based or functional assay.
In assay [7] the target is human chymotrypsin (Chtr) (human, UniProt P17538 19-263). Kind of assay: cell-based or functional assay.
A further assay has as its target human kallikrein 2 (hK2) (human, UniProt P20151 25-261). The assay can be described thus: cell-based or functional assay.
For assay [8], the target named is B2. Kind of assay: cell-based or functional assay.
The target in a further assay is thrombin. Kind of assay: cell-based or functional assay.
In assay [9] the target is human plasma kallikrein (PK) (human, UniProt P03952 20-638). Kind of assay: cell-based or functional assay.
For another assay, the target named is T2, human kallikrein 5 (hK5) (human, UniProt Q9Y337 67-293, limits assumed).
T2 sequence (looked up): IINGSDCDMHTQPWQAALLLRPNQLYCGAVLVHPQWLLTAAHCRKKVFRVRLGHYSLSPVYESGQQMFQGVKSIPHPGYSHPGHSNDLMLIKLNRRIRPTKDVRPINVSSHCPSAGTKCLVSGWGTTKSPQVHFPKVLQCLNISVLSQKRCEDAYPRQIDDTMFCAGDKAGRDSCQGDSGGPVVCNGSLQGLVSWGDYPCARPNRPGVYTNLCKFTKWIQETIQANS
Kind of assay: cell-based or functional assay.

The next assay addresses human kallikrein 4 (hK4) (human, UniProt Q9Y5K2 31-254, limits assumed). The assay can be described thus: cell-based or functional assay.
The target of assay [10] is T3, human kallikrein 13 (hK13) (human, UniProt Q9UKR3 26-277, limits assumed).
T3 sequence (looked up): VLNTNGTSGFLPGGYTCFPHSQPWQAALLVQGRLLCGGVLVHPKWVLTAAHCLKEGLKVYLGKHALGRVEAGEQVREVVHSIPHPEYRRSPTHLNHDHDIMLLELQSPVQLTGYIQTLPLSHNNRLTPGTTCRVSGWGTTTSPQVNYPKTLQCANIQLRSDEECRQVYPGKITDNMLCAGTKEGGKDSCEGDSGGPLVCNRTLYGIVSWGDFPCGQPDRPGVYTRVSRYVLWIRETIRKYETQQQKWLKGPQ
Kind of assay: cell-based or functional assay.

The target of another assay is T4, human kallikrein 8 (hK8) (human, UniProt O60259 33-260).
T4 sequence (looked up): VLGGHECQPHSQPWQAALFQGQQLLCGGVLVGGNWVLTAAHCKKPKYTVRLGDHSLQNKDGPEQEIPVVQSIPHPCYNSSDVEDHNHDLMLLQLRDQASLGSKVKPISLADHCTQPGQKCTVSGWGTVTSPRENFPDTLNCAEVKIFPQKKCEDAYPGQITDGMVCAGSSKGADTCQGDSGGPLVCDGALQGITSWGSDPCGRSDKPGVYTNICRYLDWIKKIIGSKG
Kind of assay: cell-based or functional assay.

In assay [11] the target is B2. Kind of assay: residual hK14 activity against [I0]/[E0]. An outline of the steps: as §1
The target in the next assay is T5, AATE8 (human, UniProt P01009 25-418).
T5 construct: mature; also called rAATE8
The assay can be described thus: progress curve; * [I0]/[E0] < 5 * SI. The procedure: as §2

For the next assay, the target named is T6, AATF3 (human, UniProt P01009 25-418).
T6 construct: mature
Kind of assay: progress curve; * [I0]/[E0] < 5 * SI. The procedure:
as §2

A further assay addresses T7, AATG1g (human, UniProt P01009 25-418).
T7 construct: mature
Kind of assay: progress curve; * [I0]/[E0] < 5 * SI. As to the method: as §2

In a further assay the target is T8, AATC11 (human, UniProt P01009 25-418).
T8 construct: mature
Kind of assay: progress curve; * [I0]/[E0] < 5 * SI. The procedure: as §2

The next assay has as its target T9, AATE5 (human, UniProt P01009 25-418).
T9 construct: mature
Kind of assay: progress curve; * [I0]/[E0] < 5 * SI. The procedure:
as §2

A further assay has as its target T10, AATG1 (human, UniProt P01009 25-418).
T10 construct: mature
The assay can be described thus: progress curve; * [I0]/[E0] < 5 * SI. The procedure:
as §2

Assay [12] deals with T11, AATG9 (human, UniProt P01009 25-418).
T11 construct: mature; also called rAATG9
Kind of assay: progress curve. The procedure:
as §2

In assay [13] the target is T12, AATWT (recombinant wild type alpha-1-antitrypsin) (human, UniProt P01009 25-418).
T12 construct: mature; also called rAATwt; rAAT
The assay can be described thus: progress curve. As to the method:
as §2

Assay [14] has as its target T11, AATG9. The assay can be described thus: progress curve, pseudo-first order, 37 C. The procedure: as §2, §3
In assay [15] the target is T12, AATWT (recombinant wild type …). The assay can be described thus: progress curve, pseudo-first order, 37 C. As to the method:
as §2, §3

By kon is commonly meant a measure of how fast the partners come together.

T11 sequence (P01009 other isoform, or with tags, fused parts or gaps): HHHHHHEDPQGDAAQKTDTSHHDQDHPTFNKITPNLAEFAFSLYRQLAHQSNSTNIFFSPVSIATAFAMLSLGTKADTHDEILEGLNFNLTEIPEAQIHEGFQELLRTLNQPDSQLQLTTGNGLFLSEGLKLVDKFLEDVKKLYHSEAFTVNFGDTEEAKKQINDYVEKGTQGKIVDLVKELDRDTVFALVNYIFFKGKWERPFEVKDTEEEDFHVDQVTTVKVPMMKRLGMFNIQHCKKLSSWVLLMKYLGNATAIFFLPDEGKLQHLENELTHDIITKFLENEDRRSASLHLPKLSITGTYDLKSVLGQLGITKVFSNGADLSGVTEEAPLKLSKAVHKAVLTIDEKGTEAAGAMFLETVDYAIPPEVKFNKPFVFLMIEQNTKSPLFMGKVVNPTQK
T12 sequence (P01009 other isoform, or with tags, fused parts or gaps): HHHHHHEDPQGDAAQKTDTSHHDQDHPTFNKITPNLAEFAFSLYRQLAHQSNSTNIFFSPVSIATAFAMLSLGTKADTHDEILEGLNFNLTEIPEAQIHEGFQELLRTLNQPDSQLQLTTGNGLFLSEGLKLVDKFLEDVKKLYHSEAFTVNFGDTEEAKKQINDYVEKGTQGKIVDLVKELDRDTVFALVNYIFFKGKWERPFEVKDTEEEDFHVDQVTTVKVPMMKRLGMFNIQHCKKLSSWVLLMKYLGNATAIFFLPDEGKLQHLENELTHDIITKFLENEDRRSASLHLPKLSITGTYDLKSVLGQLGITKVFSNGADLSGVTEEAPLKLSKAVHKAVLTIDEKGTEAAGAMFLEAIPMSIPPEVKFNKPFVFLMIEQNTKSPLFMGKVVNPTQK
T8 sequence (P01009 other isoform, or with tags, fused parts or gaps): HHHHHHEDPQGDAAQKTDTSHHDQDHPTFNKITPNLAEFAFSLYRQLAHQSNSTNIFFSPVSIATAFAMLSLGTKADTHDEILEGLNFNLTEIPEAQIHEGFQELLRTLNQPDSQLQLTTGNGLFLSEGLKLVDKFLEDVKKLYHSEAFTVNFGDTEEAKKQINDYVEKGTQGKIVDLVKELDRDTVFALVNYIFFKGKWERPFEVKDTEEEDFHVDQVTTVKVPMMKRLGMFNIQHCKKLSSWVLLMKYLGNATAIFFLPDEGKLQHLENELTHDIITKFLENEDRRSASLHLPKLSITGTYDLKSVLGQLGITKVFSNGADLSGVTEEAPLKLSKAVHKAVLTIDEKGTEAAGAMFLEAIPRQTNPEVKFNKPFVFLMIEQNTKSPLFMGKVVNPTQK
T5 sequence (P01009 other isoform, or with tags, fused parts or gaps): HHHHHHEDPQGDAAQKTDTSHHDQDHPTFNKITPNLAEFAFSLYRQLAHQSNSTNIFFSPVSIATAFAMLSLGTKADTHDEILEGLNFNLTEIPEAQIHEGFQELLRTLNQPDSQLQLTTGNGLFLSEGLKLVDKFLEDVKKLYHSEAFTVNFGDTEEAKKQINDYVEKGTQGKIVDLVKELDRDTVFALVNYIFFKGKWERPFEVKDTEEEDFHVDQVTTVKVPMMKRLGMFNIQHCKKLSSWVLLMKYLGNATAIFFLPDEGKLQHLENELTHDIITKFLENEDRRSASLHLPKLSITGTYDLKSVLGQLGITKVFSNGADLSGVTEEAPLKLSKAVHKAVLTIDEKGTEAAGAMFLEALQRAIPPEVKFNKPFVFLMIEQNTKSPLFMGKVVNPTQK
T9 sequence (P01009 other isoform, or with tags, fused parts or gaps): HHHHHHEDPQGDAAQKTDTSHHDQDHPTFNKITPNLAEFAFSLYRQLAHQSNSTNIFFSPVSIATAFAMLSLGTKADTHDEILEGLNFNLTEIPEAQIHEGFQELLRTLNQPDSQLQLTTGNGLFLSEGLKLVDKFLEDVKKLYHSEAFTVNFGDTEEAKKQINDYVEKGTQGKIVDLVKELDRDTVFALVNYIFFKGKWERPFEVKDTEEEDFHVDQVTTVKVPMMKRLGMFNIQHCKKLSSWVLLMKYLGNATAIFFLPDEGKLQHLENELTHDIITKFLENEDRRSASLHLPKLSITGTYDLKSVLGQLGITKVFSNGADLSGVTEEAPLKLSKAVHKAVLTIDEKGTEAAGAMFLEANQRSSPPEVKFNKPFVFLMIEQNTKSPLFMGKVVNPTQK
human chymotrypsin (Chtr), sequence (P17538 19-263): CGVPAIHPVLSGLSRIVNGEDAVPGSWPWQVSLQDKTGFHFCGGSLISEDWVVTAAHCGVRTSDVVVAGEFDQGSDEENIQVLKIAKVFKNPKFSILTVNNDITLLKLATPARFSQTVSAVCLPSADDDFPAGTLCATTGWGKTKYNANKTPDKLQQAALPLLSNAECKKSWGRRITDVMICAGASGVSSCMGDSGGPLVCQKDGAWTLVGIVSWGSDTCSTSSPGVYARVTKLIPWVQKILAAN
T10 sequence (P01009 other isoform, or with tags, fused parts or gaps): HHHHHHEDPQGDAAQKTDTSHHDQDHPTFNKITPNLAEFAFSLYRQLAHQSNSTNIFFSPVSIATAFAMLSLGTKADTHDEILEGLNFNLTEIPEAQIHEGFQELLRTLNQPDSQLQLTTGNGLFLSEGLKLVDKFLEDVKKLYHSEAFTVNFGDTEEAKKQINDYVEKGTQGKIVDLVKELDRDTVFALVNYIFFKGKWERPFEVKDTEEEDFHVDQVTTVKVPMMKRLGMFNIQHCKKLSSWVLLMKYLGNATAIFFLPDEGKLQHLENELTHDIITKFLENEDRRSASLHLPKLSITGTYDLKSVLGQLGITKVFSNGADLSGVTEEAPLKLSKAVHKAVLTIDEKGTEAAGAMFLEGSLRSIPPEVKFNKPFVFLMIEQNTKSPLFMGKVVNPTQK
human kallikrein 4 (hK4), sequence (Q9Y5K2 31-254 limits assumed): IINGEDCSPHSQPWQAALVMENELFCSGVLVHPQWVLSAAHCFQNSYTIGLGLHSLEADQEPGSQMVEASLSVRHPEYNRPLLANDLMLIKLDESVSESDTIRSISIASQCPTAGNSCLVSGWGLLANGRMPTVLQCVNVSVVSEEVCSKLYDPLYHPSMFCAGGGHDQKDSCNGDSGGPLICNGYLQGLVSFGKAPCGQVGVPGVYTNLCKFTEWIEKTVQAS
human plasma kallikrein (PK), sequence (P03952 20-638 limits assumed): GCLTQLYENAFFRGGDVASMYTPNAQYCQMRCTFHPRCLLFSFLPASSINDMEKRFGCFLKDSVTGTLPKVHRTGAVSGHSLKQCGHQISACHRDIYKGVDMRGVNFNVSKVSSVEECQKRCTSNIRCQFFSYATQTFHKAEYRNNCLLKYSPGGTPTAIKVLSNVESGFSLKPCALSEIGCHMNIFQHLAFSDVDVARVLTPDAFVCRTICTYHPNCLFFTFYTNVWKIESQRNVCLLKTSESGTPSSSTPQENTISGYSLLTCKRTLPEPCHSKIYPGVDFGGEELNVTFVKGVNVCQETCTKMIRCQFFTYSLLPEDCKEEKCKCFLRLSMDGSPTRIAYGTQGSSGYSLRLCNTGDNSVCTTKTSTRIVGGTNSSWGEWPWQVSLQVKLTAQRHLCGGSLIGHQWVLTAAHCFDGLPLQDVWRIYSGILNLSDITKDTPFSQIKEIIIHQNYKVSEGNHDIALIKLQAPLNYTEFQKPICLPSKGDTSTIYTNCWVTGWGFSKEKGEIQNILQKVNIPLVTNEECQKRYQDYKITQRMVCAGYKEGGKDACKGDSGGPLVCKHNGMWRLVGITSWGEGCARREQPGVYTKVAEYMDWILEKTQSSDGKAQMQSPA
T7 sequence (P01009 other isoform, or with tags, fused parts or gaps): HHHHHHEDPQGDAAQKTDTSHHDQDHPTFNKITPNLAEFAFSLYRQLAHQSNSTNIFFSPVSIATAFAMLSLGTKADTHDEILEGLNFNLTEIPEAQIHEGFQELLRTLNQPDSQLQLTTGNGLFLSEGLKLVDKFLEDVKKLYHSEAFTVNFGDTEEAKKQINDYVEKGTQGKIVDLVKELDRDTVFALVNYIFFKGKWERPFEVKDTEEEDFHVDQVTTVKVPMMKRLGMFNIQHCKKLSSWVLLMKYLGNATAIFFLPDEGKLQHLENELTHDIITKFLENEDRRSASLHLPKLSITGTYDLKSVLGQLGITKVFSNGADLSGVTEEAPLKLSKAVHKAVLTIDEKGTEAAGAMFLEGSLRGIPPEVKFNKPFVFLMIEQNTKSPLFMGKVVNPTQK
T6 sequence (P01009 other isoform, or with tags, fused parts or gaps): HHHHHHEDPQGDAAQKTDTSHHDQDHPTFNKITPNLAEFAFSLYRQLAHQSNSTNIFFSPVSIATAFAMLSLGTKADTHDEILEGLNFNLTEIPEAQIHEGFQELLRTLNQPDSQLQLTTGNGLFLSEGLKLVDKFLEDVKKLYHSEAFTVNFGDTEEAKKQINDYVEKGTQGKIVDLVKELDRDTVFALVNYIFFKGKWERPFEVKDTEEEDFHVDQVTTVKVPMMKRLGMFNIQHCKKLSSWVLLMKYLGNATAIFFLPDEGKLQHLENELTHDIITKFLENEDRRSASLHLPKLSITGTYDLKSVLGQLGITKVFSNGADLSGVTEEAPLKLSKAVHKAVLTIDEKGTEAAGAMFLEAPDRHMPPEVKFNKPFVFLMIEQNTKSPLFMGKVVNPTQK

B1: ACTG9 (other)
chain: MRGSHHHHHHSRHPNSPLDEENLTQENQDRGTHVDLGLASANVDFAFSLYKQLVLKAPDKNVIFSPLSISTALAFLSLGAHNTTLTEILKGLKFNLTETSEAEIHQSFQHLLRTLNQSSDELQLSMGNAMFVKEQLSLLDRFTEDAKRLYGSEAFATDFQDSAAAKKLINDYVKNGTRGKITDLIKDLDSQTMMVLVNYIFFKAKWEMPFDPQDTHQSRFYLSKKKWVMVPMMSLHHLTIPYFRDEELSCTVVELKYTGNASALFILPDQDKMEEVEAMLLPETLKRWRDSLEFREIGELYLPKFSISRDYNLNDILLQLGIEEAFTSKADLSGITGARNLAVSQVVHKAVLDVFEEGTEASAATAVKTVDYAALVETRTIVRFNRPFLMIIVPTDTQNIFFMSKVTNPKQA
notes: also called rACTG9
In the case of B1, the kon in [1] was 75000 M⁻¹ s⁻¹; in assay [2], 74000 M⁻¹ s⁻¹; in assay [4] it was 74000 M⁻¹ s⁻¹. Further, the “SI (stoichiometry of inhibition)” value in assay [3] and in assay [11] was 1.5 in each case. For the same molecule, the Percentage inhibition turned out to be 0% in [5]; 0% in assay [6]; 0% in the assay with human kallikrein 6 (hK6); 100% in assay [7]; 0% with human kallikrein 2 (hK2); 100% in [8]. Further, the Percentage inhibition (with thrombin; in [9]; with human kallikrein 5 (hK5); with human kallikrein 4 (hK4); in assay [10]; with human kallikrein 8 (hK8)) was 0% each time.
On to B2, for which the kon with AATE8 was found to be 242000 M⁻¹ s⁻¹; in the assay with AATF3 it was 13000 M⁻¹ s⁻¹; in the assay with AATG1g, 257000 M⁻¹ s⁻¹; with AATC11, 63000 M⁻¹ s⁻¹; in the assay with AATE5, 28000 M⁻¹ s⁻¹; with AATG1, 168000 M⁻¹ s⁻¹. For the same molecule, the kon with AATG9 [12] stood at 217000 M⁻¹ s⁻¹; in [13], 263000 M⁻¹ s⁻¹; in the assay with AATG9 [14], 217000 M⁻¹ s⁻¹; in assay [15], 263000 M⁻¹ s⁻¹.

These data come from US20140341881A1 (DERMADIS, published 2014).
